From US5993803A, “Method of reducing the severity of host vs graft reaction by down-regulating hsp60 autoimmunity” (Yeda Research and Development Co., Ltd., priority 1996, dated 1999)
Entries after “also recorded” stand apart in the source; their conditions may differ.

Tests used:
[1] = test system: BALB/c (H-2^d) skin allograft rejection in C57BL/6 (H-2^b) mice; format: in vivo, mouse; settings: C57BL/6 recipients; 50 μg in incomplete Freund's adjuvant s.c. 2 weeks before transplantation; Wilcoxon test; FIG. 3A
Method: (§1) FIGS. 3A and 3B show the effects of treating C57BL6 (H-2^b) mice (FIG. 3A) or wild-type NOD (H-2^g7) mice (FIG. 3B) with hsp60 (50 μg in incomplete Freund's adjuvant; Sigma) administered subcutaneously in the back 2 weeks before transplantation of BALB/c (H-2^d) skin (Elias et al., 1994; Elias et al., 1995). […] Control mice were untreated (open squares) or treated with incomplete Freund's adjuvant containing 50 μg of recombinant glutathione transferase (open diamonds).

[2] = test system: BALB/c (H-2^d) skin allograft rejection in wild-type NOD (H-2^g7) mice; format: in vivo, mouse; settings: wild-type NOD recipients; 50 μg in incomplete Freund's adjuvant s.c. 2 weeks before transplantation; Wilcoxon test; FIG. 3B
Method: as §1
Wild-type NOD (H-2^g7) mice were treated with various hsp60 peptides in incomplete Freund's adjuvant. […] Control mice were untreated (open square) or were treated with incomplete Freund's adjuvant containing 50 μg of peptide p11, a control non-immunogenic hsp60 peptide (closed diamond). […] Each group contained 10-12 mice.
Patches of dorsal skin of one cm^2 were removed from anesthetized recipient mice treated with Nembutal 6 mg/ml, 0.25 ml per mouse and replaced by the donor skin grafts. Histoacryl (B. Braun Meleungen AG, D-34209 Melsungen, Germany) was applied around the grafts and Nobecutan (ASTR, Astra Tech, POB 13, Glos G15, UK) was sprayed over them.

[3] = test system: spleen cells of treated NOD or C57BL mice stimulated with irradiated BALB/c spleen cells; assay: Mixed lymphocyte reaction (MLR) of spleen cells from treated, grafted mice with irradiated BALB/c spleen cells; format: cell-based, mouse
Source text: T cells reactive to hsp60 and other hsp molecules have been isolated from cardiac allografts (Moliterno et al., 1995) as well as from other inflammatory lesions (Selmaj et al., 1991; Mor et al., 1992). […] It is theorized that the constitutive hyper-expression of hsp60 in the donor Eα-hsp60 skin amplifies the activation of anti-hsp60 autoimmune T cells at the site and enhance the local immune response by adding pro-inflammatory (TH1-type) cytokines, such as INFγ (Finkelman et al., 1990), to the allograft reaction, thereby inciting and abetting other T cells responsive to the foreign antigens. Conversely, hsp60 autoimmune T cells that have been activated to produce anti-inflammatory cytokines of the TH2-type, such as IL-10, should serve to shut down the effector immune reaction by a form of by-stander suppression (Weiner et al., 1994). To test whether treatment with hsp60 peptides might modify the cytokine response, NOD or C57BL mice were treated with hsp60 or with hsp60 peptide p12. Control mice were untreated or were treated with saline emulsified in IFA. The mice were grafted with BALB/c skin grafts and twenty days later, just at the beginning of graft rejection in the control mice, groups of 5-10 mice were sacrificed and their spleen cells assayed individually in a standard mixed lymphocyte reaction (MLR) with irradiated BALB/c spleen cells as stimulators (Lohse et al., 1990). […] However, the MLR media were also tested for the presence of the TH1 cytokine IFNγ and the TH2 cytokine IL-10.

B1: hsp60: Recombinant human 60 kDa heat shock protein, SEQ ID NO:1 (protein, UniProt P10809 27-573, looked up)
60 kDa heat shock protein, …: AKDVKFGADARALMLQGVDLLADAVAVTMGPKGRTVIIEQSWGSPKVTKDGVTVAKSIDLKDKYKNIGAKLVQDVANNTNEEAGDGTTTATVLARSIAKEGFEKISKGANPVEIRRGVMLAVDAVIAELKKQSKPVTTPEEIAQVATISANGDKEIGNIISDAMKKVGRKGVITVKDGKTLNDELEIIEGMKFDRGYISPYFINTSKGQKCEFQDAYVLLSEKKISSIQSIVPALEIANAHRKPLVIIAEDVDGEALSTLVLNRLKVGLQVVAVKAPGFGDNRKNQLKDMAIATGGAVFGEEGLTLNLEDVQPHDLGKVGEVIVTKDDAMLLKGKGDKAQIEKRIQEIIEQLDVTTSEYEKEKLNERLAKLSDGVAVLKVGGTSDVEVNEKKDRVTDALNATRAAVEEGIVLGGGCALLRCIPALDSLTPANEDQKIGIEIIKRTLKIPAMTIAKNAGVEGSLIVEKIMQSSSEVGYDAMAGDFVNMVEKGIIDPTKVVRTALLDAAGVASLLTTAEVVVTEIPKEEKDPGMGAMGGMGGGMGGGMF
survival of BALB/c skin grafts (delay in skin allograft rejection) [1]: significantly prolonged survival; also recorded: significant | survival of BALB/c skin grafts (delay in skin allograft rejection) [2]: delayed rejection; also recorded: significant | T-cell proliferation by thymidine incorporation in MLR, treated vs control groups ([3]; spleen cells taken 20 days after BALB/c skin grafting, hsp60 and p12 treated mice reported together): no significant differences | IL-10 produced in MLR media ([3]; spleen cells taken 20 days after grafting, hsp60 and p12 treated mice pooled, control mice 3.5±0.6, p=0.004): 8 ± 1.4 ng/mL | IFNγ produced in MLR media ([3]; spleen cells taken 20 days after grafting, hsp60 and p12 treated mice pooled, control mice 9.25±1.7, p=0.002): 3.13 ± 1.4 ng/mL
